Measured values: paper PMC7116816 (Nature cancer, 2020)

Legend:
[1] = molecular target: deglycosylated human CD25 (SinoBiological) (Homo sapiens, UniProt P01589, deglycosylated with N-glycosidase F); test: crystal structure
[2] = molecular target: human CD25 on SU-DHL1 tumor cells (human CD25+) (Homo sapiens, UniProt P01589); test: flow cytometry on cells
[3] = molecular target: cynomolgus CD25 on HSC-F cells (cynomolgus CD25+) (Macaca fascicularis, UniProt H6WS54); test: flow cytometry on cells

Chain of deglycosylated human CD25 (SinoBiological) (P01589 22-213): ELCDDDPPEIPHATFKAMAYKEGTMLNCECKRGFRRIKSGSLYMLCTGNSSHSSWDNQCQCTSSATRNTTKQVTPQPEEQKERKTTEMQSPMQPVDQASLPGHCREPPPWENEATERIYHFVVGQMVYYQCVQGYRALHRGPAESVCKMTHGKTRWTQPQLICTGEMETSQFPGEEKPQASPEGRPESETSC
Chain of human CD25 on SU-DHL1 tumor cells (human CD25+) (P01589 22-272): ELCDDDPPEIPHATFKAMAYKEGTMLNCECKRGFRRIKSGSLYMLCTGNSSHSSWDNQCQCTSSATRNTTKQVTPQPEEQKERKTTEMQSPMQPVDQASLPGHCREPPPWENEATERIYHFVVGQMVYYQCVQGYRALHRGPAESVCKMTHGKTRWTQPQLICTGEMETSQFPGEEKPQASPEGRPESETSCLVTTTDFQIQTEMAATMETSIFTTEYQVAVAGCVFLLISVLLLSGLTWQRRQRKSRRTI

B1: Fab fragment of RG6292 (Fab, V domains shown)
VH: QVQLVQSGAEVKKPGSSVKVSCKASGGTFSSLAISWVRQAPGQGLEWMGGIIPIFGTANYAQKFQGRVTITADESTSTAYMELSSLRSEDTAVYYCARGGSVSGTLVDFDIWGQGTMVTVSS
VL: not shown
[1]
  binding result: binds

B2: RG6292 (FF), the fully fucosylated version of RG6292 (antibody, V domains shown)
VH: QVQLVQSGAEVKKPGSSVKVSCKASGGTFSSLAISWVRQAPGQGLEWMGGIIPIFGTANYAQKFQGRVTITADESTSTAYMELSSLRSEDTAVYYCARGGSVSGTLVDFDIWGQGTMVTVSS
VL: not shown
[2]
  binding result: binds

B3: RG6292, a-fucosylated human IgG1 mAb (anti-human CD25^NIB) (antibody, V domains shown)
VH: QVQLVQSGAEVKKPGSSVKVSCKASGGTFSSLAISWVRQAPGQGLEWMGGIIPIFGTANYAQKFQGRVTITADESTSTAYMELSSLRSEDTAVYYCARGGSVSGTLVDFDIWGQGTMVTVSS
VL: not shown
[3]
  binding result: binds
